Consider 39 sequences from the supplement of paper PMC7877785.

The series can be described thus: self-splicing fitness, log relative to wild type (ln ratio); higher = more splicing; Tetrahymena group I intron in knt gene, E. coli kanamycin selection, DiMSum; sequences stand for … in CUCUCU…GGAGGGAAAAGUUAUCAGGCAUGCACCUGGUAGCUAGUCUUUAAACCAAUAGAUUGCAUCGGUUUAAAAGGCAAGACCGUCAAAUUGCGGGAAAGGGGUCAACAGCCGUUCAGUACCAAGUCUCAGGGGAAACUUUGAGAUGGCCUUGCAAAGGGUAUGGUAAUAAGCUGACGGACAUGGUCCUAACCACGCAGCCAAGUCCUAAGUCAACAGAUCUUCUGUUGAUAUGGAUGCAGUUCACAGACUAAAUGUCGGUCGGGGAAGAUGUAUUCUUCUCAUAAGAUAUAGUCGGACCUCUCCUUAAUGGGAGCUAGCGGAUGAAGUGAUGCAACACUGGAGCCGCUGGGAACUAAUUUGUAUGCGAAAGUAUAUUGAUUAGUUUUGGAGUACUCGUGGUCG
The procedure, abridged:
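A randomised library covering all eight P1ex-region intron nucleotides was built with the intron in the knt kanamycin-resistance gene on pET-22b(+) and held in E. coli BL21(DE3). Cells were grown overnight at 37°C or 30°C on LB agar, with or without 25 μg/mL kanamycin, plus 100 μg/mL carbenicillin, 50 μM IPTG and 0.2% rhamnose, and pooled colonies were amplicon-sequenced on an Illumina HiSeq 2500. DiMSum fitness is the error-weighted combination of wild-type-normalised replicate fold changes, kanamycin versus none.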

± gives the uncertainty stated by the source.

With AGCCAGCAAUAUUACGUAUC, the “self-splicing fitness (ln)” value by setting is: (30 °C) -2.85 ± 0.15; (37 °C) -2.21 ± 0.23.
Consider UGUAAGCAAUAUUACGUGCU, for which the “self-splicing fitness (ln)” value is -1.48 ± 0.13 (30 °C) and -0.148 ± 0.16 (37 °C).
The matching figures for GCUGAGCAAUAUUACGUUUA: -2.35 ± 0.24 and -1.87 ± 0.25.
The matching figures for GCGUAGCAAUAUUACGCAGU: -4.05 ± 0.34 and -2.28 ± 0.25.
Consider GUGUAGCAAUAUUACGACCU, for which the “self-splicing fitness (ln)” value runs as follows: (30 °C) -0.216 ± 0.27; (37 °C) 0.601 ± 0.24.
Regarding ACGAAGCAAUAUUACGACCU, the “self-splicing fitness (ln)” value by setting is: (30 °C) 0.0549 ± 0.12; (37 °C) 0.126 ± 0.13.
The matching figures for CAGAAGCAAUAUUACGUCUC: -1.79 ± 0.07 and -0.536 ± 0.084.
The matching figures for UCAAAGCAAUAUUACGGAAG: -2.03 ± 0.17 and -2.38 ± 0.28.
Consider AGGUAGCAAUAUUACGUUAU, for which the “self-splicing fitness (ln)” value was -3.603 ± 0.026 (30 °C) and -2.75 ± 0.039 (37 °C).
Turning to GCCCAGCAAUAUUACGCUGU, the “self-splicing fitness (ln)” value is -0.516 ± 0.063 (30 °C) and -0.482 ± 0.092 (37 °C).
AUCGAGCAAUAUUACGCAUC: the “self-splicing fitness (ln)” value (30 °C) was -2.77 ± 0.48.
In the case of GGUUAGCAAUAUUACGUUGA, the “self-splicing fitness (ln)” value by setting is: (30 °C) -2 ± 0.2; (37 °C) -1.54 ± 0.17.
For CGUAAGCAAUAUUACGUCGG, in that order: -1.2 ± 0.08 and -0.133 ± 0.1.
Consider CCCCAGCAAUAUUACGUCAC, for which the “self-splicing fitness (ln)” value (30 °C) is -4.02 ± 0.23 and the “self-splicing fitness (ln)” value (37 °C) is -2.93 ± 0.26.
Regarding CGUUAGCAAUAUUACGCCCA, the “self-splicing fitness (ln)” value (30 °C) is -1.43 ± 0.16 and the “self-splicing fitness (ln)” value (37 °C) was 0.14 ± 0.18.
The matching figures for CCCAAGCAAUAUUACGGGAG: -3.79 ± 0.13 and -2.29 ± 0.13.
AACGAGCAAUAUUACGACGU: the “self-splicing fitness (ln)” value by setting is: (30 °C) -0.822 ± 0.09; (37 °C) -0.593 ± 0.089.
For GAAGAGCAAUAUUACGCGGA, the “self-splicing fitness (ln)” value was -2.64 ± 0.17 (30 °C) and -2.37 ± 0.21 (37 °C).
Take AAUGAGCAAUAUUACGUAGC: the “self-splicing fitness (ln)” value is, setting by setting: (30 °C) -2.91 ± 0.2; (37 °C) -2.05 ± 0.36.
For AGGAAGCAAUAUUACGGCCA, in that order: -0.118 ± 0.14 and 0.223 ± 0.19.
For GCAUAGCAAUAUUACGACGC, the “self-splicing fitness (ln)” value is, setting by setting: (30 °C) -0.867 ± 0.13; (37 °C) -0.196 ± 0.13.
For GAACAGCAAUAUUACGGGAU, in that order: -2.26 ± 0.084 and -1.05 ± 0.079.
On to GGGUAGCAAUAUUACGUAGU, for which the “self-splicing fitness (ln)” value (30 °C) is -2.23 ± 0.085 and the “self-splicing fitness (ln)” value (37 °C) was -0.762 ± 0.093.
The matching figures for ACUCAGCAAUAUUACGCCAA: -1.12 ± 0.17 and -2.5 ± 0.21.
Turning to AUCUAGCAAUAUUACGGAGC, the “self-splicing fitness (ln)” value (30 °C) was -3.43 ± 0.19 and the “self-splicing fitness (ln)” value (37 °C) is -1.32 ± 0.14.
For CUCAAGCAAUAUUACGUGGG, the “self-splicing fitness (ln)” value (30 °C) was -4.05 ± 0.17 and the “self-splicing fitness (ln)” value (37 °C) was -2.85 ± 0.15.
Turning to GCUAAGCAAUAUUACGUAAU, the “self-splicing fitness (ln)” value is -0.775 ± 0.088 (30 °C) and -0.189 ± 0.11 (37 °C).
Turning to GCAAAGCAAUAUUACGCCUC, the “self-splicing fitness (ln)” value was -2.69 ± 0.12 (30 °C) and -1.86 ± 0.16 (37 °C).
Take AGUAAGCAAUAUUACGAUGC: the “self-splicing fitness (ln)” value is -2.58 ± 0.19 (30 °C) and -1.67 ± 0.15 (37 °C).
Regarding AGCAAGCAAUAUUACGUUUG, the “self-splicing fitness (ln)” value (30 °C) is -4.51 ± 0.22 and the “self-splicing fitness (ln)” value (37 °C) is -2.76 ± 0.18.
For the sequence CCUAAGCAAUAUUACGGAGA, the “self-splicing fitness (ln)” value (37 °C) is -1.46 ± 0.22.
Turning to UCGGAGCAAUAUUACGUGAU, the “self-splicing fitness (ln)” value (37 °C) was -3.24 ± 0.47.
Still for that read-out and setting: the figure for AUCAAGCAAUAUUACGUUUC is -1.52 ± 0.34.
As for UUCCAGCAAUAUUACGUGGC, the “self-splicing fitness (ln)” value by setting is: (30 °C) -3.11 ± 0.15; (37 °C) -3.15 ± 0.24.
For GAACAGCAAUAUUACGGUGU, in that order: -2.02 ± 0.066 and -0.373 ± 0.069.
For AAAAAGCAAUAUUACGAGCU, in that order: -0.615 ± 0.092 and -0.172 ± 0.13.
The matching figures for CUGCAGCAAUAUUACGGUAG: -3.65 ± 0.1 and -2.45 ± 0.11.
In the case of UAUUAGCAAUAUUACGGAAG, the “self-splicing fitness (ln)” value is -2.63 ± 0.31 (30 °C) and -1.9 ± 0.25 (37 °C).
As for AGAGAGCAAUAUUACGCGCG, where the note is “37 °C”, the “self-splicing fitness (ln)” value is -1.3 ± 0.48.
